From patent publication US20250027068

target: pooled human IgG (human IgG1,2,3 and 4)

Protein | Enzyme Activity Endpoint Assay: Fab′2 | Enzyme Activity Endpoint Assay: Fc | Enzyme Activity Endpoint Assay: IgG | Enzyme Activity Endpoint Assay: scIgG
PRT-90 (protein) MANQEIRYSEETPYHVTSVWTKGVTPPAKFTQGEDVFHAPYVANQGWYDITKTFNGKDDLLCGAATAGNMLHWWFDQNKEKIEAYLKKHPEKQKIMFGDQELLDVRKVINTKDDQTNSELFNYFRDKAFPGLSARRLGVMPDLVLDMFINGYYLNVYKTQTTDVNRTYQEKDRRGGIFDAVFTRGDQSKLLTSRHDFKEKTLKEISDLIKKELTEGKALGLSHTYANVRINHVINLWGADFDSNGNLKAIYVTDSDSNASIGMKKYFVGVNSAGKVAISAKEIKEDNIGAQVLGLFTLSTGQDIWNQTN | 44 ng/µL | 106 ng/µL | 21 ng/µL | 0 ng/µL
PRT-94 (protein) MANQEIRYSEETPYHVTSVWTKGVTPPAKFTQGEDVFHAPYVANQGWYDITKTFNGKDDLLCGAATAGNMLHWWFDQNKEKIEAYLKKHPDKQKIMFGDQELLDVRKVINTKGDQTNSELFNYFRDKAFPGLSARRIGVMPDLVLDMFINGYYLNVYKTQTTDVNRTYQEKDRRGGIFDAVFTRGDQSKLLTSRHDFKEKTLKEISDLIKKELTEGKALGLSHTYANVRINHVINLWGADFDSNGNLKAIYVTDSDSNASIGMKKYFVGVNSAGKVAISAKEIKEDNIGAQVLGLFTLSTGQDSWNQTN | 547 ng/µL | 120 ng/µL | 0 ng/µL | 0 ng/µL
PRT-93 (protein) MANQEIRYSEVTPYHVTSVWTKGVTPPAKFTQGEDVFHAPYVANQGWYDITKTFNGKDDLLCGAATAGNMLHWWFDQNKEKIEAYLKKHPDKQKIMFGDQELLDVRKVINTKDDQTNSELFNYFRDKAFPGLSARRIGVMPDLVLDMFINGYYLNVYKTQTTDVNRTYQEKDRRGGIFDAVFTRGDQSKLLTSRHDFKEKNLKEISDLIKKELTEGKALGLSHTYANVRINHVINLWGADFDSNGNLKAIYVTDSDSNASIGMKKYFVGVNSAGKVAISAKEIKEDNIGAQVLGLFTLSTGQDSWNQTN | 38 ng/µL | 91 ng/µL | 11 ng/µL | 0 ng/µL
PRT-92 (protein) MANQEIRYSEVTPYTITSVWTKGVTPPADFTQGEDVFHAPYVANQGWYDITKTFNGKDDLLCGAATAGNMLHWWFDQNKEKIEAYLKKHPEKQKIMFGDQELLDVRKAINTKDDQTNSELFNYFRDKAFPNLSARRLGVMPDLVLDMFINGYYLNVYKTQTTDVNRTYQEKDKRGGIFDAVFTRGDQSKLLTSRHDFKEKNLKEISDLIKQELTEGKALGLSHTYANVRINHVINLWGADFDSEGNLKAIYVTDSDSNASIGMKKYFVGVNSAGKVAISAKEIKEDNIGAQVLGLFTLSTGQDIWNQTN | 40 ng/µL | 104 ng/µL | 8 ng/µL | 6 ng/µL
PRT-91 (protein) MANQEIRYSEETPYHITSVWTKGVTPPAKFTQGEDVFHAPYVANQGWYDITKTFNGKDDLLCGAATAGNMLHWWFDQNKEKIEAYLKKHPEKQKIMFGDQELLDVRKVINTKDDQTNSELFNYFRDKAFPNLSARRLGVMPDLVLDMFINGYYLNVGKTQTTDVNRTYQEKDKRGGIFDAVFTRGDQSKLLTSRHDFKEKNLKEISDLIKQELTEGKALGLSHTYANVRINHVINLWGADFDSNGNLKAIYVTDSDSNASIGMKKYFVGVNSAGKVAISAKEIEEDNIGAQVLGLFTLSTGQDIWNQTN | 40 ng/µL | 102 ng/µL | 16 ng/µL | 9 ng/µL
